Assay results as given in patent US11229679B2, “Compositions for treating heart disease by inhibiting the action of mAKAPβ” (Anchored RSK3 Inhibitors, LLC, priority 2013, dated 2022).

How the values were obtained:
[1] = test system: NHE1; settings: Cuello 2007; cited from earlier work
[2] = test system: neonatal rat ventricular myocytes; test: Neonatal rat ventricular myocyte hypertrophy (cross-section area, ANF expression); type: cell-based; settings: for agonist-induced myocyte hypertrophy: BI-D1870 10 μmol/L, SL0101 50 μmol/L, PE, LIF or FBS, 2 days; for PE-induced hypertrophy: expressed in neonatal myocytes
Protocol: Neonatal rat myocytes isolation and culture: 1-3 day old Sprague-Dawley rats were decapitated and the excised hearts placed in 1×ADS Buffer (116 mmol/L NaCl, 20 mmol/L HEPES, 1 mmol/L NaH2PO4, 5.5 mmol/L glucose, 5.4 mmol/L KCl, 0.8 mmol/L MgSO4, pH 7.35). The atria were carefully removed and the blood washed away. The ventricles were minced and incubated with 15 mL 1×ADS Buffer containing 3.3 mg type II collagenase (Worthington, 230 U/mg) and 9 mg Pancreatin (Sigma) at 37° C. while shaking at 80 RPM. After 15 minutes, the dissociated cardiac myocytes were separated by centrifugation at 50×g for 1 minute, resuspended in 4 mL horse serum and incubated 37° C. with occasional agitation. The steps for enzymatic digestion and isolation of myocytes were repeated 10-12 times to maximize yield. The myocytes were pooled and spun down again at 50×g for 2 minutes and resuspended in Maintenance Medium (DMEM:M199, 4:1) supplemented with 10% horse serum and 5% fetal bovine serum. To remove any contaminating fibroblasts, the cells were pre-plated for 1 hour before plating on gelatin-coated tissue culture plasticware. This procedure yields >90% pure cardiac myocytes. After 1 day in culture, the media was changed to maintenance medium containing 0.1 mmol/L bromodeoxyuridine to suppress fibroblast growth. Experiments were initiated 1 day after myocyte isolation. Adenoviral infection was performed by addition of adenovirus (multiplicity of infection=5-50) to the media. Plasmids and siRNA oligonucleotides were transfected using Transfast (Promega) and Dharmafect (Thermofisher), respectively, as recommended by the manufacturers using cells cultured in maintenance medium supplemented with 4% horse serum. Starting the day after gene transduction, the cells were treated for as long as 2 days, as indicated for each experiment. Immunocytochemistry: Cultured neonatal cardiomyocytes on plastic coverslips were fixed in 3.7% formaldehyde in PBS, permeabilized with 0.3% Triton X-100 in PBS, and blocked with PBS containing 0.2% BSA and 1% horse serum for 1 hour. The slides were then sequentially incubated for 1 hour with primary and Alexa fluorescent dye-conjugated specific-secondary antibodies (Invitrogen, 1:1000) diluted in blocking buffer. The slips were washed three times with blocking buffer. 1 μg/mL Hoechst 33258 was included in the last wash stop to label nuclei. Slides were sealed in SlowFade Gold antifade buffer (Invitrogen) for fluorescent microscopy. Wide-field images were acquired using a Leica DMI 6000 Microscope. Morphometry: Morphometric data was acquired using IPLab Software. […] For adult mouse cardiac myocytes, the maximum lengths perpendicular (width) or parallel (length) to the myofibrils were measured for >100 freshly dissociated myocytes per heart.

[3] = test system: Noonan syndrome mouse model (Raf1L613V knock-in); settings: Wu 2011; cited from earlier work
[4] = test system: RSK; test: RSK activation in neonatal rat ventricular myocytes (pan-RSK phospho-S218 Western blot); type: cell-based; settings: 10 μmol/L PE, 1 hour
Description: RSK family members can be activated in most cell types by ERK, but not c-Jun N-terminal kinases or p38 (Anjum 2008). ERK phosphorylation is permissive for PDK1 phosphorylation of the RSK N-terminal kinase domain, such that PDK1 phosphorylation of RSK S^218 is indicative of full activation of the enzyme (FIG. 4A). […] The α-adrenergic stimulation with phenylephrine (PE) induced RSK phosphorylation 3-fold by both MEK1/2-dependent (that activates ERK1/2) and MEK5-dependent (that activates ERK5) mechanisms (FIG. 22).
Immunoprecipitations: HEK293 and COS-7 cells were transfected with Lipofectamine 2000 (Invitrogen) or Polyethylenimine “Max” (Polysciences). Cells (including myocytes) were lysed in buffer (20 mmol/L HEPES, pH 7.4, 150 mmol/L NaCl, 5 mmol/L EDTA, 0.5% Triton, 50 mmol/L NaF, 1 mmol/L sodium orthovanadate, 1 mmol/L DTT, and protease inhibitors). After centrifugation at 10,000×g for 10 minutes at 4° C., the clarified extracts were used for immunoprecipitation using appropriate antibodies (10 μg purified antibody or 1-5 μL whole serum) and 20 μL protein G sepharose (Millipore, Fastflow) for 3 hours to overnight at 4° C. The beads were washed 3-5 times with lysis buffer, and the immunoprecipitated proteins were eluted with 1× Laemmli buffer for western blotting. […]

[5] = target: T1, RSK3 (Homo sapiens, UniProt Q15349); test: Surface plasmon resonance of His-RSK3 binding to immobilized His-mAKAP 1286-1833
T1 construct: bacterially expressed His-tagged mAKAP 1286 to 1833 and full-length RSK3 was analyzed by surface plasmon resonance; His; made in house; host or cells: bacteria (pET30 / pGEX-4T vectors)
T1 sequence (Q15349 whole entry): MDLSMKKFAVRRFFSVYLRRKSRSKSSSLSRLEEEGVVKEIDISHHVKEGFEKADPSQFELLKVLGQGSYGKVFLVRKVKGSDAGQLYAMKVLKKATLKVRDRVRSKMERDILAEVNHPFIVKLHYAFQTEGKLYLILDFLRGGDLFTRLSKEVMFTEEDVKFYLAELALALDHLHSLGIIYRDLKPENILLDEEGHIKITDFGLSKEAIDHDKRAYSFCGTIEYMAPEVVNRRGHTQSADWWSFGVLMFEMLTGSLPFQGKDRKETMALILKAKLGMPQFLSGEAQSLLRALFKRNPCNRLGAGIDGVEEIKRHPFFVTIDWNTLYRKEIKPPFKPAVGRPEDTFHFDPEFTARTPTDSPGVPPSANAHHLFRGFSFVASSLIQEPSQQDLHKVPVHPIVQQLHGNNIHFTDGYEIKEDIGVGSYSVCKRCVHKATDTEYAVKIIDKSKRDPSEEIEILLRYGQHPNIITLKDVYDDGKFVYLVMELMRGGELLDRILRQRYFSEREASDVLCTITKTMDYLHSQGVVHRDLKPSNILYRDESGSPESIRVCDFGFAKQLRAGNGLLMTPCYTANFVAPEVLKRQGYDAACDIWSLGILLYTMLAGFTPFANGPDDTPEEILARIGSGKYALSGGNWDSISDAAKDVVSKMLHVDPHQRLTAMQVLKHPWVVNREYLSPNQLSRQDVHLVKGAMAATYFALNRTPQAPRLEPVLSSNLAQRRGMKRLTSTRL
Protocol: Surface Plasmon Resonance: SPR analysis was performed using a BIAcore T100. 200 resonance units His-tagged mAKAP 1286-1833 were covalently immobilized using NHS (N-hydroxysuccinamide) and EDC [1-ethyl-3-(3-(dimethylamino)propyl)carbodiimide] (Biacore amine coupling kit) to the surface of a sensor chip (BIAcore type CM5). His-RSK3 analytes (6.25-200 nmol/L) in HBS buffer (10 mmol/L Hepes, pH 7.4, 150 mmol/L NaCl, and 0.005% Surfactant P20) were injected at a flow rate of 30 μL/min for 5 minutes, followed by buffer alone for another 5 minutes. Sensorgrams were processed by BIAcore T100 evaluation software.
For phosphorylated His-RSK3, 20 μg His-RSK3 was phosphorylated with 2 μg ERK2 (Millipore, 14-550) and/or PDK1 (Sigma, P7498) for 5 hours in kinase buffer (20 mmol/L MOPS, pH 7.2, 25 mmol/L β-glycerol phosphate, 5 mmol/L EGTA, 1 mmol/L sodium orthovanadate, 1 mmol/L DTT) with 0.5 mmol/L MgATP. Phospho-His-RSK3 was purified using His-binding beads and concentrated before use.

[6] = test system: HA-RSK3 fragments, HA-RSK2; test: Co-immunoprecipitation of tagged mAKAP and RSK proteins co-expressed in COS-7 cells; type: binding
Protocol: (§1) Immunoprecipitations: HEK293 and COS-7 cells were transfected with Lipofectamine 2000 (Invitrogen) or Polyethylenimine “Max” (Polysciences). Cells (including myocytes) were lysed in buffer (20 mmol/L HEPES, pH 7.4, 150 mmol/L NaCl, 5 mmol/L EDTA, 0.5% Triton, 50 mmol/L NaF, 1 mmol/L sodium orthovanadate, 1 mmol/L DTT, and protease inhibitors). After centrifugation at 10,000×g for 10 minutes at 4° C., the clarified extracts were used for immunoprecipitation using appropriate antibodies (10 μg purified antibody or 1-5 μL whole serum) and 20 μL protein G sepharose (Millipore, Fastflow) for 3 hours to overnight at 4° C. The beads were washed 3-5 times with lysis buffer, and the immunoprecipitated proteins were eluted with 1× Laemmli buffer for western blotting. Western blots were developed using horseradish peroxidase-conjugated donkey secondary antibodies, Supersignal West Chemiluminescent Substrates (Thermo Scientific) and X-ray film or a Fujifilm LAS-3000 imaging system.

[7] = test system: RSK3 and mAKAPβ; test: Co-immunoprecipitation of endogenous RSK3 with mAKAPβ complexes from PE-treated myocytes; type: cell-based, rat; settings: expressed in neonatal myocytes
Protocol: as §1

## Cc1ccc(-c2c(C(=O)CF)n(CCCO)c3ncnc(N)c23)cc1 [fmk]
[1]
  α-adrenergic-induced NHE1 phosphorylation: blocked

## CC(=O)OC1C(C)OC(Oc2c(-c3ccc(O)cc3)oc3cc(O)cc(O)c3c2=O)C(O)C1OC(C)=O (stereo not drawn) [SL0101, reference compound]
[2]
  agonist-induced myocyte hypertrophy: inhibited

## O=C(NOC[C@H](O)CO)c1ccc(F)c(F)c1Nc1ccc(I)cc1F [PD0325901]
[3]
  progression of cardiac hypertrophy cardiomyopathy and other Noonan characteristics: attenuated progression

## CC(C)CCN1c2nc(Nc3cc(F)c(O)c(F)c3)ncc2N(C)C(=O)C1C (stereo not drawn) [BI-D1870, reference compound]
[2]
  agonist-induced myocyte hypertrophy: inhibited

## CNC[C@H](O)c1cccc(O)c1 [phenylephrine]
[4]
  induction of RSK phosphorylation: 3 fold

B1: mAKAP 1286 to 1833: bacterially expressed His-tagged mAKAP fragment, residues 1286 to 1833 (protein)
chain: VYSLHNVELHEDSHTPFLKSSPKFTGTTQPTVLTKSLSKDSSFSSTKSLPDLLGGSGLVRPYSCHSGDLSQNSGSESGIVSEGDNEMPTNSDMSLFSMVDGSPSNPETEHPDPQMGDAANVLEQKFKDNGESIKLSSVSRASVSPVGCVNGKAGDLNSVTKHTADCLGEELQGKHDVFTFYDYSYLQGSKLKLPMIMKQPQSEKAHVEDPLLGGFYFDKKSCKAKHQASESQPDAPPHERILASAPHEMGRSAYKSSDIEKTFTGIQSARQLSLLSRSSSVESLSPGGDLFGLGIFKNGSDSLQRSTSLESWLTSYKSNEDLFSCHSSGDISVSSGSVGELSKRTLDLLNRLENIQSPSEQKIKRSVSDMTLQSSSQKMPFAGQMSLDVASSINEDSPASLTELSSSDELSLCSEDIVLHKNKIPESNASFRKRLNRSVADESDVNVSMIVNVSCTSACTDDEDDSDLLSSSTLTLTEEELCLKDEDDDSSIATDDEIYEESNLMSGLDYIKNELQTWIRPKLSLTREKKRSGVTDEIKVNKDGGGNE
modifications: left off: small tags and cut ends
[5]; RSK3 previously phosphorylated by ERK
  decrease of RSK3 binding affinity for mAKAP: 5 fold
[5]; RSK3 previously phosphorylated by both ERK and PDK1
  decrease of RSK3 binding affinity for mAKAP: 8 fold
[5]; unphosphorylated His-RSK3
  KD of binding to full-length RSK3: nanomolar

B2: mAKAP RBD: main RSK3 binding domain of mAKAP, fragment encompassing residues 1694 to 1833; competing binding peptide (protein)
chain: ELSLCSEDIVLHKNKIPESNASFRKRLNRSVADESDVNVSMIVNVSCTSACTDDEDDSDLLSSSTLTLTEEELCLKDEDDDSSIATDDEIYEESNLMSGLDYIKNELQTWIRPKLSLTREKKRSGVTDEIKVNKDGGGNE
modifications: left off: small tags and cut ends
[2]
  PE-induced hypertrophy: inhibited
[6]
  binding to N-terminally truncated RSK3 mutant (HA-RSK3 DN30) or HA-tagged full-length RSK2: not

B3: green fluorescent protein-mAKAP RBD fusion protein: myc-GFP-mAKAP RSK binding domain (RBD) fusion protein; mAKAP 1694-1833 (protein)
chain: B2 chain
modifications: left off: small tags and cut ends; large carriers
[2]
  PE-induced hypertrophy: markedly inhibited
[7]
  association of endogenous RSK3 and mAKAPβ: competed
